Test results as given in patent US20220380444A1 (UNIVERSITY COLLEGE CARDIFF CONSULTANTS, published 2022).

T1: rat C7 protein (rat)
T1 chain: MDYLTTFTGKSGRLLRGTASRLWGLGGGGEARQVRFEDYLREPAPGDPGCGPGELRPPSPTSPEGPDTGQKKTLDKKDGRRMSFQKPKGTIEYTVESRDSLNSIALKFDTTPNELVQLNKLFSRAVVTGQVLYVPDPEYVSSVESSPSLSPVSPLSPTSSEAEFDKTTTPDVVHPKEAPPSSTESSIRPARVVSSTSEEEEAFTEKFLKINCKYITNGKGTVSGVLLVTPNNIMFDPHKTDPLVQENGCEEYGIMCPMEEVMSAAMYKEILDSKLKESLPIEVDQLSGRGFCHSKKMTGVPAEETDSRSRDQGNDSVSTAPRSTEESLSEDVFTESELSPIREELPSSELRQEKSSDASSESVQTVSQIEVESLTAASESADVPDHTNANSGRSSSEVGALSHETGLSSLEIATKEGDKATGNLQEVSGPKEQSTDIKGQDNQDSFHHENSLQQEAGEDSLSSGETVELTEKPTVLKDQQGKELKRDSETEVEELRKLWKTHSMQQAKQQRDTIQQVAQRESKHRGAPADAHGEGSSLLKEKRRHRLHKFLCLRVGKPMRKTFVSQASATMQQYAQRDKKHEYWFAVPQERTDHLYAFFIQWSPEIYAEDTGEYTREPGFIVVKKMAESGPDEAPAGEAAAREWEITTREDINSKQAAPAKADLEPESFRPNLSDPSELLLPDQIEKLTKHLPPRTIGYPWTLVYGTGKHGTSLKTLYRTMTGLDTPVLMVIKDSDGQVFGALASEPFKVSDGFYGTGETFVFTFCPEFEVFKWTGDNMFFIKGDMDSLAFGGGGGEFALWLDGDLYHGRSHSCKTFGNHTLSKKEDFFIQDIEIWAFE

B1: monoclonal anti-C7 antibody 17E7 (antibody, IgG2a, V domains shown)
VH: EVQLQQSGTVLARPGASVKMSCKTSGYSFTTYWMHWVKQRPGQGLEWIGAIYPGNSDTYYSQKFKDKAKLTAVTSASTAYMELSSLTNEDSAVYYCTRSGGYDVGGLDYWGQGTTLTVSS
VL: DIVMTQSPATLSVTPGDGVSLSCRASQSISDYLHWYQQKSHESPRLLIKFASQSISGIPSRFSGSGSGSDFTLSINSVEPEDVGMYYCQNGHSFPFTFGSGTKLELK
notes: also called mAb 17E7; antibody from hybridoma ECACC 19041601
B2: monoclonal anti-C7 antibody 2H2 (antibody, IgG2b, V domains shown)
VH: QVQLQQPGAELMKPGASVKLSCKASGYIFTSYWMHWVKQRPGRGLEWIGRIDPNSGGTNYNEKFKSKATLTVDKPSSTVYMKISSLTSEDSAVYYCAREHDYDYAMDYWGQGTSVTVSS
VL: DIVMTQAAPSVPVTPGESVSISCRSSKSLLHSNGNTYLYWFLQRPGQSPQLLIYRMSNLASGVPDRFSGSGSGTAFTLRISRVEAEDVGVYYCMQHLEYPFTFGSGTKLEIK
notes: Biotinylated in the pull-down assays; also called mAb 2H2; clone 2H2
B3: monoclonal anti-C7 antibody 73D1 (antibody, IgG2a, V domains shown)
VH: EVQLQQSGPELVKPGASVKMSCKASGYTFTDYNMHWVKQSHGKSLEWIGYINPNNGGPSYNQNFKGKATLTVNKSSSTAYMELRSLTSEDSAVYYCACGNYPDYWGQGTTLTVSS
VL: DIQMTQSPASLSASVGETVTITCRASGNIHNYLAWYQQKQGKSPQLLVYNAKTLADGVPSRFSGSGSGTQYSLKINSLQPEDFGSYYCQHFWSTPLTFGAGTKLELK
notes: also called mAb 73D1; antibody from hybridoma ECACC 19080601

Tests used:
[1] = target: T2, human complement protein C7 (human, UniProt P10643 23-843); assay: cell-based or functional assay
T2 sequence (P10643 other isoform, or with tags, fused parts or gaps limits assumed): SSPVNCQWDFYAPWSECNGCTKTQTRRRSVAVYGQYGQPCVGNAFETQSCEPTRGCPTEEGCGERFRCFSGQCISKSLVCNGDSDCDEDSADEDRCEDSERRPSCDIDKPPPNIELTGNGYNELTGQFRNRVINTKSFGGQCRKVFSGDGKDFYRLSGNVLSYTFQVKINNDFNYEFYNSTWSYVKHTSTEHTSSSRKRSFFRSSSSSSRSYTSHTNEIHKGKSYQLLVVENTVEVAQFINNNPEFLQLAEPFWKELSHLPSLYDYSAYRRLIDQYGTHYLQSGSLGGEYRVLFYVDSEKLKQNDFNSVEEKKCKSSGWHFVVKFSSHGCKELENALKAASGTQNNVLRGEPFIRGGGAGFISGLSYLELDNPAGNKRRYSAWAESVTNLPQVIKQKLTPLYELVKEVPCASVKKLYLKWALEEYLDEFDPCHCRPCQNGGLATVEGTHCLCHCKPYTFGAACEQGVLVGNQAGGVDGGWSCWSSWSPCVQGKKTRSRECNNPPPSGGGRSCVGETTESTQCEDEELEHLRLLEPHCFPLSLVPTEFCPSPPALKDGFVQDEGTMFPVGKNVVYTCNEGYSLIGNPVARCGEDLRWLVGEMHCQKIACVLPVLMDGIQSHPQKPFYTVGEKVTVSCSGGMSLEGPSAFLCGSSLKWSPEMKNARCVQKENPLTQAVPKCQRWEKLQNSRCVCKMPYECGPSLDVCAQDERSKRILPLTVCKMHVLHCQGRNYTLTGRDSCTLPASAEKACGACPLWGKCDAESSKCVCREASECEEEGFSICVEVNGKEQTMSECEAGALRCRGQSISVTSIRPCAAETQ

[2] = target: T2, human complement protein C7; assay: SPR (Biacore); antibody captured on mouse IgG capture kit (CM5 chip), C7 flowed over
Procedure: (§1) Dissociation was then measured for a further 600 seconds. The surface was regenerated between each cycle.

[3] = target: T2, human complement protein C7; assay: direct ELISA, C7 immobilised on the well, antibody titrated
Procedure: Wells were blocked with bovine serum albumin (BSA), washed, then incubated (1 hour at 37° C.) with test samples containing mAb (supernatants from hybridoma clones for example). Wells were washed then incubated as above with peroxidase-labelled anti-mouse immunoglobulin (Jackson Labs). Wells were washed and signals were developed with OPD (o-phenylenediamine dihydrochloride; Sigma). Colour development was stopped by adding 10% H₂SO₄ to all wells, usually within 5 minutes. The absorbance of each well was measured at 492 nm.

[4] = target: T2, human complement protein C7; assay: sandwich ELISA, 2H2 coated as capture, human C7 titrated, goat anti-C7 as detection
[5] = target: T2, human complement protein C7; assay: sandwich ELISA, 2H2 coated as capture, human C7 titrated, polyclonal anti-C7 as detection
rat C7 protein [6] = target: T1, rat C7 protein; assay: direct ELISA, rat C7 on the well, antibody titrated
rat C7 protein [7] = target: T1, rat C7 protein; assay: cell-based or functional assay
mouse C7 protein = mouse C7 protein (mouse, UniProt D3YXF5 23-845); assay: cell-based or functional assay
Chain of mouse C7 protein (D3YXF5 23-845 limits assumed): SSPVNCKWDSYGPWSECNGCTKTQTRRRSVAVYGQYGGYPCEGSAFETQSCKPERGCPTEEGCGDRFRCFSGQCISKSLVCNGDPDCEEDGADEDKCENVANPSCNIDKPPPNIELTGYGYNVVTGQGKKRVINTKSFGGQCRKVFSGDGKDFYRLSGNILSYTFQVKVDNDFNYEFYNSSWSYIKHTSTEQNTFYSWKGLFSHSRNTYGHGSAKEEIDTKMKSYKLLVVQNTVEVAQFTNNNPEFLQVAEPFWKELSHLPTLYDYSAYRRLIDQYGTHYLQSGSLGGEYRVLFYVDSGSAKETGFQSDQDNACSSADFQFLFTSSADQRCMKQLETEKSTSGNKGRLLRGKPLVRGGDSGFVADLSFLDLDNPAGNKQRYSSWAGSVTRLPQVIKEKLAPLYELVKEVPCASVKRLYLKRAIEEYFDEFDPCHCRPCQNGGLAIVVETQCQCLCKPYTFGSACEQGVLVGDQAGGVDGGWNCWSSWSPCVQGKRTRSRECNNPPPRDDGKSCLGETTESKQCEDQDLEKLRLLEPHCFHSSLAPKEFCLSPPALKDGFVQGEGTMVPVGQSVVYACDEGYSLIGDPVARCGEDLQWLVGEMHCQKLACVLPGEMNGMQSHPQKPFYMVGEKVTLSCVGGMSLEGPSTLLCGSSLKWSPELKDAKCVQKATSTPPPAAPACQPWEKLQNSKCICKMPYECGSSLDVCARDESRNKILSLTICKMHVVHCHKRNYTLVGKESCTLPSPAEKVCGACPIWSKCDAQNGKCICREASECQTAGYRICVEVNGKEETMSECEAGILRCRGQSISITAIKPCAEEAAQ

rat C7 protein [8] = target: T1, rat C7 protein; assay: SPR (Biacore); antibody captured on mouse IgG capture kit (CM5 chip), C7 flowed over
Procedure: as §1

Binder | 50% Inhibitory Dose, classical pathway haemolysis assay [1] | Haemolytic Units (HU), classical pathway haemolysis assay [1] | Kd [2] | koff [2] | kon [2] | EC50 (read off the curve) [3] | EC50 (read off the curve) [4] | EC50 (read off the curve) [5] | EC50 (read off the curve) (rat C7 protein [6]) | 50% Inhibitory Dose, classical pathway haemolysis assay (rat C7 protein [7]) | Haemolytic Units (HU), classical pathway haemolysis assay (rat C7 protein [7]) | 50% Inhibitory Dose, classical pathway haemolysis assay (mouse C7 protein) | Haemolytic Units (HU), classical pathway haemolysis assay (mouse C7 protein) | Kd (rat C7 protein [8]) | koff (rat C7 protein [8]) | kon (rat C7 protein [8])
B1 | 182 ng/mL | 55.1 HU | 1.02 nM | 6.94e-05 s⁻¹ | 68300 M⁻¹ s⁻¹ | ~0.01 µg/mL | – | – | – | – | – | – | – | – | – | –
B2 | 9980 ng/mL | 1 HU | – | – | – | – | ~0.6 µg/mL | ~0.6 µg/mL | ~3 µg/mL | 33.9 ng/mL | 265 HU | 3720 ng/mL | 2.7 HU | – | – | –
B3 | 582 ng/mL | 17.2 HU | 55.5 nM | 0.0015 s⁻¹ | 26300 M⁻¹ s⁻¹ | – | – | – | – | 506 ng/mL | 19.8 HU | 720 ng/mL | 13.9 HU | 81.7 nM | 0.00057 s⁻¹ | 6980 M⁻¹ s⁻¹
